# Paper PMC9029710, “Improvement of Biocatalytic Properties and Cytotoxic Activity of L-Asparaginase from Rhodospirillum rubrum by Conjugation with Chitosan-Based Cationic Polyelectrolytes” (Pharmaceuticals, 2022)
# B1: RrA (L-asparaginase from Rhodospirillum rubrum) (Rhodospirillum rubrum ATCC 11170) (protein)
# chain: MAVSPSPLRIFTAGGTIDKDYRLEENGLVVGDPFVAEVLKTARLAGAVSIVALSRKDSLDFTEADREAIGRAVGQAVEDHILLTHGTDTMVETARYLGGLPELAGKTVVLSGAMVPGRVGGSDAAFNIGFACAAALMLAPGVYIAMHGKVFDPAKTRKNRGLGRFEPIDDQE
# notes: 172 aa, 18 kDa, tetramer; native unconjugated enzyme
# Substrate: NC(=O)C[C@H](N)C(=O)O
# Experiment: circular dichroism hydrolysis assay
# Format: biochemical, Rhodospirillum rubrum
# Conditions: native RrA, pH 7.5, 5 mM citrate-phosphate-borate buffer, 37 °C
# Excerpt: circular dichroism hydrolysis assay on RrA (L-asparaginase from Rhodospirillum rubrum)
protein,measurement,value
B1,Km,4.8 ± 1.6 mM
same,Vmax,59 µmol/min/mg
same,Vmax/Km,12300 µL/min/mg
